Assay [1] has as its target T1, unmodified H3 peptide of the tryptophan fluorescence and NMR titration experiments.
T1 chain: ARTKQTARKSTG
Nature of the assay: tryptophan fluorescence. Particulars: chain shown with the change; H3 (1–12) peptide; triplicates.

Assay [2] concerns the target T2, H3K4ac peptide of the tryptophan fluorescence and NMR titration experiments.
T2 chain: ARTKQTAR
Nature of the assay: tryptophan fluorescence. Conditions: chain shown with the change; H3K4ac (1–12) peptide; triplicates.

This is an account of results in PMC6138639, “The ZZ-type zinc finger of ZZZ3 modulates the ATAC complex-mediated histone acetylation and gene activation” (Nature Communications, 2018).

As usually defined, the Kd is the constant that tells how readily two partners part at equilibrium.

B1: ZZZ3 ZZ domain (aa 800–903), GST cleaved, Q8IYH5 F821A (protein)
chain: KLKKQKLQQMQAESGFVQHVGAKCDNCGIEPIQGVRWHCQDCPPEMSLDFCDSCSDCLHETDIHKEDHQLEPIYRSETFLDRDYCVSQGTSYNYLDPNYFPANR
B1: the figures for the Kd in assay [1] and in assay [2] were 271 µM and 294 µM, respectively.
